US12465660B2, “Compositions and methods for cancer imaging and radiotherapy” (VECT-HORUS, priority 2017, dated 2025)
Positions of bridges follow the written chain, without caps; N, C: chain ends. Non-standard residues stand in square brackets, D forms with d. Primed or numbered codes have the meaning given here. No end group written: not given here. *: point of attachment. DOTA = O=C(O)CN1CCN(CC(=O)O)CCN(CC(=O)*)CCN(CC(=O)O)CC1; NODAGA′ = not defined here; PEG12′ = not defined here; βAla = NCCC(=O)O

Legend:
[1] = molecular target: T1, Recombinant human LDLR (His-tagged) (Homo sapiens, UniProt P01130); assay: SPR affinity of MG04/VH-DO35, CH44, FG770, CH40 and FG769 for LDLR (Biacore T200); type: binding; settings: 25° C.
T1 construct: purchased Sino Biological (Beijing, China)
Protocol: (§1) Recombinant human LDLR (His-tagged) was purchased from Sino Biological (Beijing, China). Interaction of conjugates with LDLR was tested at 25° C. using a Biacore T200 (GE Healthcare) and 50 mM HEPES-NaOH pH7.4, 150 mM NaCl, 0.005% Tween-20, 50 μM EDTA as running buffer. hLDLR was immobilized on a NiHC sensor chip (Xantec, Dusseldorf, Germany) at a density of 35-60 fmol/mm^2. Binding of conjugates to LDLR-coated flow cells was corrected for non-specific binding to uncoated flow cells. The single-cycle kinetic method was used to measure the affinity of ligands with LDLR. Ligands were diluted in running buffer and injected sequentially 2 minutes at 30 μl/min using increasing concentrations. Blank run injections of running buffer were performed in the same conditions before ligand injection. Double-subtracted sensorgrams were globally fitted with the 1:1 Langmuir binding model from Biacore T200 Evaluation version 2.0.

[2] = molecular target: T1, Recombinant human LDLR (His-tagged); assay: SPR affinity of conjugates A, B, C and D for LDLR (Biacore T200); type: binding; settings: 25° C.
Protocol: as §1

CHO-hLDLR-GFP cells = assay: Binding/endocytosis of fluorescent conjugates by LDLR expressing cells (confocal microscopy); type: cell-based, Chinese Hamster; settings: live cells, 1 hour at 37° C.
Source text: In these experiments, with regards to FIG. 2, the LDLR-GFP signal is visualized in column 2, the conjugate signal is either directly visualized in column 4 using the A680 fluorescence or in column 3 using an anti-hFc-A594 conjugated secondary antibody. Cell nuclei were stained in blue with Hoechst and its signal can be visualized in column 1. The co-labelling of LDLR-GFP and conjugates can be visualized as a highlight signal in column 5 on the merge image.

T1 sequence (P01130 22-860): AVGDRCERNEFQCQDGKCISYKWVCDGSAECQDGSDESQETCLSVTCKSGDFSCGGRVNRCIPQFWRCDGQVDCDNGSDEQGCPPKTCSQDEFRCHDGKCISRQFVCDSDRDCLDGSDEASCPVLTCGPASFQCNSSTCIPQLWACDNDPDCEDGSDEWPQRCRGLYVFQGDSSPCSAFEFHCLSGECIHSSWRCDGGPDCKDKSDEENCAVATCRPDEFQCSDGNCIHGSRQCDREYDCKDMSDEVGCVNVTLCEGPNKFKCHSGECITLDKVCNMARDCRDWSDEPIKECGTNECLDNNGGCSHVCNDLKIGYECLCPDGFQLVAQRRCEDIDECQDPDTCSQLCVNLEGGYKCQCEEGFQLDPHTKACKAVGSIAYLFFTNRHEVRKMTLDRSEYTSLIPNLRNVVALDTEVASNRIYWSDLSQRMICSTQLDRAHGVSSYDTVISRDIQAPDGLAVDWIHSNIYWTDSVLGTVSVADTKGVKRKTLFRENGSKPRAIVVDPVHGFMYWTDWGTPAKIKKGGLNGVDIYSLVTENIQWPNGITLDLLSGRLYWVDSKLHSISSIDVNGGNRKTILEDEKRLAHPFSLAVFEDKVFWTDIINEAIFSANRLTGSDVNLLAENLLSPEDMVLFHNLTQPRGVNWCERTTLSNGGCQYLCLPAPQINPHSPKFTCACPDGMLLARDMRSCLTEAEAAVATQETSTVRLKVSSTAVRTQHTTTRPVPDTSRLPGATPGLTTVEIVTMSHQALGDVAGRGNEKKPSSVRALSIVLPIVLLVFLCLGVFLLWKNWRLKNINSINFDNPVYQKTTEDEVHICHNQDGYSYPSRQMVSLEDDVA

| KD [1] | KD [2] | Substance | binding to and endocytosis by CHO-hLDLR-GFP cells (CHO-hLDLR-GFP cells) |
| --- | --- | --- | --- |
| No Binding | – | DOTA-βAla-PEG12-SEQ ID NO: 13-NH2 ({DOTA-βAla-PEG12′}-[dC]RPLGRMC-NH2; disulfide 1-8) [FG769, scrambled counterpart of FG770] | – |
| – | No Binding | Fc-Peptide D-A680 (CRMLGRPC; cysteine pairing not given here; also: fused to a dimerising Fc or GST) [Conjugate D, control] | are not |
| No Binding | – | NODAGA-βAla-PEG12-SEQ ID NO: 13-NH2 ({NODAGA′-βAla-PEG12′}-[dC]RPLGRMC-NH2; disulfide 1-8) [CH40, scrambled counterpart of CH44] | – |
